According to the supplement of paper PMC5998384:

Legend:
HeLa Kyoto [1] = assay: thermal stability score vs G1/S (z-score of summed log2 fold changes over temperatures); higher = more thermally stable than in G1/S
HeLa Kyoto [2] = assay: solubility change mitosis vs G1/S (difference of NP-40 vs SDS log2 ratios) (log2 ratio difference); higher = more soluble in mitosis
HeLa Kyoto [3] = assay: melting temperature (median over replicates), in situ; higher = more thermally stable
HeLa Kyoto [4] = assay: solubility in G1/S (NP-40 vs SDS abundance) (log2 ratio); higher = more soluble; conditions: cell cycle stage: G1/S
[5] = cell cycle stage: early G1 (4.5 h after nocodazole release)
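Wherever melting temperature (median over replicates), in situ is given: HeLa Kyoto cells synchronized by double thymidine or nocodazole block, proteins quantified by TMT10plex mass spectrometry, three independent biological replicates.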
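Wherever solubility change mitosis vs G1/S (difference of NP-40 vs SDS log2 ratios) is given: synchronized HeLa Kyoto cells (double thymidine block for G1/S, nocodazole release for mitosis), protein amounts in NP-40 versus SDS lysates quantified by mass spectrometry, three biological replicates.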
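Wherever solubility in G1/S (NP-40 vs SDS abundance) is given: HeLa Kyoto cells arrested at G1/S by double thymidine block, proteins quantified by TMT10plex mass spectrometry in mild NP-40 versus SDS extracts, three biological replicates.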
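Wherever thermal stability score vs G1/S (z-score of summed log2 fold changes over temperatures) is given: synchronized HeLa Kyoto cells, proteins quantified by TMT10plex mass spectrometry, three biological replicates, mitosis taken 0.5 h after nocodazole release, G1/S directly after double thymidine block.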

With “MEPAEQPSELVSAEGRNRKAVLCQRCGSRVLQPGTALFSRRQLFLPSMRKKPALSDGSNPDGDLLQEHWLVEDMFIFENVGFTKDVGNIKFLVCADCEIGPIGWHCLDDKNSFYVALERVSHE [RABIF]” the thermal stability score (HeLa Kyoto [1]; [5]) was 0.827, the thermal stability score (HeLa Kyoto [1]; cell cycle stage: mitosis) was 0.411 and the “solubility change mitosis (log2)” value (HeLa Kyoto [2]) was -0.0782. For the same sequence, the melting temperature (HeLa Kyoto [3]; cell cycle stage: G1/S) was 52.2 °C, the melting temperature (HeLa Kyoto [3]; cell cycle stage: mitosis) was 51.7 °C and the “solubility in G1/S (log2)” value (HeLa Kyoto [4]) was 0.225.
For “MEPAPSEVRLAVREAIHALSSSEDGGHIFCTLESLKRYLGEMEPPALPREKEEFASAHFSPVLRCLASRLSPAWLELLPHGRLEELWASFFLEGPADQAFLVLMETIEGAAGPSFRLMKMARLLARFLREGRLAVLMEAQCRQQTQPGFILLRETLLGKVVALPDHLGNRLQQENLAEFFPQNYFRLLGEEVVRVLQAVVDSLQGGLDSSVSFVSQVLGKACVHGRQQEILGVLVPRLAALTQGSYLHQRVCWRLVEQVPDRAMEAVLTGLVEAALGPEVLSRLLGNLVVKNKKAQFVMTQKLLFLQSRLTTPMLQSLLGHLAMDSQRRPLLLQVLKELLETWGSSSAIRHTPLPQQRHVSKAVLICLAQLGEPELRDSRDELLASMMAGVKCRLDSSLPPVRRLGMIVAEVVSARIHPEGPPLKFQYEEDELSLELLALASPQPAGDGASEAGTSLVPATAEPPAETPAEIVDGGVPQAQLAGSDSDLDSDDEFVPYDMSGDRELKSSKAPAYVRDCVEALTTSEDIERWEAALRALEGLVYRSPTATREVSVELAKVLLHLEEKTCVVGFAGLRQRALVAVTVTDPAPVADYLTSQFYALNYSLRQRMDILDVLTLAAQELSRPGCLGRTPQPGSPSPNTPCLPEAAVSQPGSAVASDWRVVVEERIRSKTQRLSKGGPRQGPAGSPSRFNSVAGHFFFPLLQRFDRPLVTFDLLGEDQLVLGRLAHTLGALMCLAVNTTVAVAMGKALLEFVWALRFHIDAYVRQGLLSAVSSVLLSLPAARLLEDLMDELLEARSWLADVAEKDPDEDCRTLALRALLLLQRLKNRLLPPASP [TELO2]”, the thermal stability score (HeLa Kyoto [1]; [5]) was -0.195, the thermal stability score (HeLa Kyoto [1]; cell cycle stage: mitosis) was 0.325 and the “solubility change mitosis (log2)” value (HeLa Kyoto [2]) was -0.103. The melting temperature (HeLa Kyoto [3]; cell cycle stage: G1/S) was 48.8 °C, the melting temperature (HeLa Kyoto [3]; cell cycle stage: mitosis) was 49.1 °C and the “solubility in G1/S (log2)” value (HeLa Kyoto [4]) was -0.341.
“MEPATAPRPDMAPELTPEEEQATKQFLEEINKWTVQYNVSPLSWNVAVKFLMARKFDVLRAIELFHSYRETRRKEGIVKLKPHEEPLRSEILSGKFTILNVRDPTGASIALFTARLHHPHKSVQHVVLQALFYLLDRAVDSFETQRNGLVFIYDMCGSNYANFELDLGKKVLNLLKGAFPARLKKVLIVGAPIWFRVPYSIISLLLKDKVRERIQILKTSEVTQHLPRECLPENLGGYVKIDLATWNFQFLPQVNGHPDPFDEIILFSLPPALDWDSVHVPGPHAMTIQELVDYVNARQKQGIYEEYEDIRRENPVGTFHCSMSPGNLEKNRYGDVPCLDQTRVKLTKRSGHTQTDYINASFMDGYKQKNAYIGTQGPLENTYRDFWLMVWEQKVLVIVMTTRFEEGGRRKCGQYWPLEKDSRIRFGFLTVTNLGVENMNHYKKTTLEIHNTEERQKRQVTHFQFLSWPDYGVPSSAASLIDFLRVVRNQQSLAVSNMGARSKGQCPEPPIVVHCSAGIGRTGTFCSLDICLAQLEELGTLNVFQTVSRMRTQRAFSIQTPEQYYFCYKAILEFAEKEGMVSSGQNLLAVESQ [PTPN9]” was tested, and the thermal stability score (HeLa Kyoto [1]; [5]) was 1.02, the thermal stability score (HeLa Kyoto [1]; cell cycle stage: mitosis) was -0.717 and the “solubility change mitosis (log2)” value (HeLa Kyoto [2]) was -0.094. For the same sequence, the melting temperature (HeLa Kyoto [3]; cell cycle stage: G1/S) was 51.1 °C, the melting temperature (HeLa Kyoto [3]; cell cycle stage: mitosis) was 51.7 °C and the “solubility in G1/S (log2)” value (HeLa Kyoto [4]) was -0.0379.
In the case of “MEPFTNDRLQLPRNMIENSMFEEEPDVVDLAKEPCLHPLEPDEVEYEPRGSRLLVRGLGEHEMEEDEEDYESSAKLLGMSFMNRSSGLRNSATGYRQSPDGACSVPSARTMVVCAFVIVVAVSVIMVIYLLPRCTFTKEGCHKKNQSIGLIQPFATNGKLFPWAQIRLPTAVVPLRYELSLHPNLTSMTFRGSVTISVQALQVTWNIILHSTGHNISRVTFMSAVSSQEKQAEILEYAYHGQIAIVAPEALLAGHNYTLKIEYSANISSSYYGFYGFSYTDESNEKKYFAATQFEPLAARSAFPCFDEPAFKATFIIKIIRDEQYTALSNMPKKSSVVLDDGLVQDEFSESVKMSTYLVAFIVGEMKNLSQDVNGTLVSIYAVPEKIGQVHYALETTVKLLEFFQNYFEIQYPLKKLDLVAIPDFEAGAMENWGLLTFREETLLYDSNTSSMADRKLVTKIIAHELAHQWFGNLVTMKWWNDLWLNEGFATFMEYFSLEKIFKELSSYEDFLDARFKTMKKDSLNSSHPISSSVQSSEQIEEMFDSLSYFKGSSLLLMLKTYLSEDVFQHAVVLYLHNHSYASIQSDDLWDSFNEVTNQTLDVKRMMKTWTLQKGFPLVTVQKKGKELFIQQERFFLNMKPEIQPSDTSYLWHIPLSYVTEGRNYSKYQSVSLLDKKSGVINLTEEVLWVKVNINMNGYYIVHYADDDWEALIHQLKINPYVLSDKDRANLINNIFELAGLGKVPLKRAFDLINYLGNENHTAPITEALFQTDLIYNLLEKLGYMDLASRLVTRVFKLLQNQIQQQTWTDEGTPSMRELRSALLEFACTHNLGNCSTTAMKLFDDWMASNGTQSLPTDVMTTVFKVGAKTDKGWSFLLGKYISIGSEAEKNKILEALASSEDVRKLYWLMKSSLNGDNFRTQKLSFIIRTVGRHFPGHLLAWDFVKENWNKLVQKFPLGSYTIQNIVAGSTYLFSTKTHLSEVQAFFENQSEATFRLRCVQEALEVIQLNIQWMEKNLKSLTWWL [LNPEP]”, the thermal stability score (HeLa Kyoto [1]; [5]) is reported as -1.44, the thermal stability score (HeLa Kyoto [1]; cell cycle stage: mitosis) is reported as -1.44 and the “solubility change mitosis (log2)” value (HeLa Kyoto [2]) is reported as -0.15. The melting temperature (HeLa Kyoto [3]; cell cycle stage: G1/S) was 56.8 °C, the melting temperature (HeLa Kyoto [3]; cell cycle stage: mitosis) was 57.1 °C and the “solubility in G1/S (log2)” value (HeLa Kyoto [4]) was 0.198.
For “MEPGPDGPAASGPAAIREGWFRETCSLWPGQALSLQVEQLLHHRRSRYQDILVFRSKTYGNVLVLDGVIQCTERDEFSYQEMIANLPLCSHPNPRKVLIIGGGDGGVLREVVKHPSVESVVQCEIDEDVIQVSKKFLPGMAIGYSSSKLTLHVGDGFEFMKQNQDAFDVIITDSSDPMGPAESLFKESYYQLMKTALKEDGVLCCQGECQWLHLDLIKEMRQFCQSLFPVVAYAYCTIPTYPSGQIGFMLCSKNPSTNFQEPVQPLTQQQVAQMQLKYYNSDVHRAAFVLPEFARKALNDVS [SRM]”, the thermal stability score (HeLa Kyoto [1]; [5]) was 0.149, the thermal stability score (HeLa Kyoto [1]; cell cycle stage: mitosis) was 0.82 and the “solubility change mitosis (log2)” value (HeLa Kyoto [2]) was -0.232. The melting temperature (HeLa Kyoto [3]; cell cycle stage: G1/S) was 51.8 °C, the melting temperature (HeLa Kyoto [3]; cell cycle stage: mitosis) was 51.9 °C and the “solubility in G1/S (log2)” value (HeLa Kyoto [4]) was 0.283.
